This data set relates to CC(=O)N[C@H]1[C@H](Oc2ccc([N+](=O)[O-])cc2)O[C@H](CO)[C@@H](O[C@@H]2O[C@H](CO)[C@@H](O)[C@H](O)[C@H]2NC(C)=O)[C@@H]1O. The data set can be described thus: purified protein. The note with it: 20 mM sodium phosphate pH 7.4, 37 °C (standard assay), substrate 0.05–0.45 mM.

2 substances from PMC7334433, “Enzymatic characterization and structure-function relationship of two chitinases, LmChiA and LmChiB, from Listeria monocytogenes” (Heliyon, 2020) can be followed below.

In the case of LmChiA (Listeria monocytogenes EGD-e), the Km was determined as 1622 ± 13 µM, the kcat was 33.6 ± 1 s⁻¹ and the kcat/Km was found to be 20000 M⁻¹ s⁻¹.

As to LmChiB (Listeria monocytogenes EGD-e), the Km was found to be 375 ± 27 µM, the catalytic constant (kcat) worked out at 72.1 ± 1.4 s⁻¹ and the kcat/Km turned out to be 190000 M⁻¹ s⁻¹.

In general, Km refers to the concentration of substrate that gives half-maximal velocity. One may read the kcat as the number of substrate molecules converted per active site and unit of time at saturation. As a reminder, the kcat/Km is the turnover number divided by the Michaelis constant.
